In US6994968 one finds leftward shift in the Slo-1 activation curve (V1/2act) in the presence of 50 µM free Ca2+ data, which are given here for one molecule.

The assay has as its target human Slo1 (human), Q12791. Kind of assay: cell-based or functional assay.

human Slo1 (human), Q12791, sequence (Q12791 whole entry): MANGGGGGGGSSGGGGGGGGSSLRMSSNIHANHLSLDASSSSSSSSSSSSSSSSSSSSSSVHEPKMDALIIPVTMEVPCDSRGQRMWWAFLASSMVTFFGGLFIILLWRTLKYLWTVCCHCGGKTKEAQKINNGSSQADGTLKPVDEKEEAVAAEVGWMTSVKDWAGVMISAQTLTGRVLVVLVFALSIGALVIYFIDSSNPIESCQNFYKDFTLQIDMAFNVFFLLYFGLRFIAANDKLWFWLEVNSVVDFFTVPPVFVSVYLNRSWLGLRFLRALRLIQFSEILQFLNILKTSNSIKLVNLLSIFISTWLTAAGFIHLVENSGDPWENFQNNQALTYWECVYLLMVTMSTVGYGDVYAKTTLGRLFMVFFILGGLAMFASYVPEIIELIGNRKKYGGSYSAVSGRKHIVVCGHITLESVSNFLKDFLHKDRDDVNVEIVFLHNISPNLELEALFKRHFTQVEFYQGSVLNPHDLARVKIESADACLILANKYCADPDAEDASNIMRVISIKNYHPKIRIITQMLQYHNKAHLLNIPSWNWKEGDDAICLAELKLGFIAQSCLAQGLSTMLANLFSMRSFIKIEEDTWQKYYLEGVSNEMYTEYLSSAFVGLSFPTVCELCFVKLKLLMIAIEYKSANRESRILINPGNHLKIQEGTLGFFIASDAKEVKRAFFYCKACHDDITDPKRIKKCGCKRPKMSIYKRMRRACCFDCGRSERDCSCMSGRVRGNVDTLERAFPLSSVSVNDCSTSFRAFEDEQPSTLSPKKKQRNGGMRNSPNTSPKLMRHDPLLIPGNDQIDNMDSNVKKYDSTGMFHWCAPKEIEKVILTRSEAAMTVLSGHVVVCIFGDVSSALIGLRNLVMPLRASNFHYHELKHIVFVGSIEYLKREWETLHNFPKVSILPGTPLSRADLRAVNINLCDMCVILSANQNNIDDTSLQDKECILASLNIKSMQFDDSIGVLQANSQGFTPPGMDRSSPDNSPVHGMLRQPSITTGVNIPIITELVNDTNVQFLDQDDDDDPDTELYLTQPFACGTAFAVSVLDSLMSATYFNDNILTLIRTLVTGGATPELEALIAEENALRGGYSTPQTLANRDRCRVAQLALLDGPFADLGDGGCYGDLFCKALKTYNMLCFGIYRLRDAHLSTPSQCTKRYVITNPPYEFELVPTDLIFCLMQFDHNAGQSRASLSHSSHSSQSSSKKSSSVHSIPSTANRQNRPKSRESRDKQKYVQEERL

B1: human BK beta 3, Q86W47 1-210 (protein)
chain: MAKLRVAYEYTEAEDKSIRLGLFLIISGVVSLFIFGFCWLSPALQDLQATEANCTVLSVQQIGEVFECTFTCGADCRGTSQYPCVQVYVNNSESNSRALLHSDEHQLLTNPKCSYIPPCKRENQKNLESVMNWQQYWKDEIGSQPFTCYFNQHQRPDDVLLHRTHDEIVLLHCFLWPLVTFVVGVLIVVLTICAKSLAVKAEAMKKRKFS
B1: the leftward shift in the Slo-1 activation curve (V1/2act) in the presence of 50 µM free Ca2+ was 15 mV.
